The values that follow are results of earlier work, collected in publication PMC3433420.

What all share (conditions): cited from earlier work
The target of data set [1] is FER (Homo sapiens) (UniProt P16591).
Data set [2] has as its target TNS4 (Homo sapiens) (UniProt Q8IZW8).
Data set [3] has as its target RASA1-N (Homo sapiens) (UniProt P20936).
The target in data set [4] is PIK3R3-N (Homo sapiens) (UniProt Q92569).
Data set [5] deals with PIK3R2-NC (Homo sapiens) (UniProt O00459).
The target of data set [6] is PIK3R3-C (Homo sapiens) (UniProt Q92569).
Data set [7] has as its target GRB7 (Homo sapiens) (UniProt Q14451).
Data set [8] deals with PLCG2-NC (Homo sapiens) (UniProt P16885).
Data set [9] deals with PIK3R3-NC (Homo sapiens) (UniProt Q92569).
For data set [10], the target named is RASA1-N (Homo sapiens) (UniProt P20936). The source holds these as a separate data set.
Data set [11] has as its target PIK3R1-NC (Homo sapiens) (UniProt P27986).
For data set [12], the target named is NCK2 (Homo sapiens) (UniProt O43639).
Data set [13] concerns the target VAV2 (Homo sapiens) (UniProt P52735).
The target of data set [14] is BLK (Homo sapiens) (UniProt P51451).
Data set [15] concerns the target ITK (Homo sapiens) (UniProt Q08881).
The target in data set [16] is ABL2 (Homo sapiens) (UniProt P42684).
Data set [17] has as its target LYN (Homo sapiens) (UniProt P07948).
Data set [18] addresses FGR (Homo sapiens) (UniProt P09769).
The target in data set [19] is PTPN6-C (Homo sapiens) (UniProt P29350).
For data set [20], the target named is RASA1-NC (Homo sapiens) (UniProt P20936).
In data set [21] the target is PLCG1-C (Homo sapiens) (UniProt P19174).
Data set [22] addresses SYK-C (Homo sapiens) (UniProt P43405).
In data set [23] the target is ABL2 (Homo sapiens) (UniProt P42684). This is another data set of the same source.
The target of data set [24] is PIK3R1-NC (Homo sapiens) (UniProt P27986). This is another data set of the same source.
In data set [25] the target is SHC3 (Homo sapiens) (UniProt Q92529).
Data set [26] has as its target SOCS5 (Homo sapiens) (UniProt O75159).
The target in data set [27] is SH2D1A (Homo sapiens) (UniProt O60880).
Data set [28] has as its target GRB10 (Homo sapiens) (UniProt Q13322).
Data set [29] deals with SHC1-PTB (Homo sapiens) (UniProt P29353).
The target of data set [30] is PLCG1-N (Homo sapiens) (UniProt P19174).

Where two headings read alike, the source gives them in different places.

Sequence of ABL2 (Homo sapiens) (P42684 168-268): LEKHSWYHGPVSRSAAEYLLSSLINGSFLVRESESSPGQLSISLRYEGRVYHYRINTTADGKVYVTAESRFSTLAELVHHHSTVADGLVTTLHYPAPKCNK
Sequence of PIK3R1-NC (Homo sapiens) (P27986 328-723): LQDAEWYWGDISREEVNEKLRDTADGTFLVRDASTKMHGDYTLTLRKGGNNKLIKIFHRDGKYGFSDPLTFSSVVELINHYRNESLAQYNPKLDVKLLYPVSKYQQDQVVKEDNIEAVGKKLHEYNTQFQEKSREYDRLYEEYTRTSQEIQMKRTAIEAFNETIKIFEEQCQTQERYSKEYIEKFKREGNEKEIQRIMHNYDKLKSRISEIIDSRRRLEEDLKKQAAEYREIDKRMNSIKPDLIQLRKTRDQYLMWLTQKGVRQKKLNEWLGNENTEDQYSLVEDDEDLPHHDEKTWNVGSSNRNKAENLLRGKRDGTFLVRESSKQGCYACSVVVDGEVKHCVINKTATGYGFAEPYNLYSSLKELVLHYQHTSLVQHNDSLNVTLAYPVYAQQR
Sequence of RASA1-N (Homo sapiens) (P20936 176-446): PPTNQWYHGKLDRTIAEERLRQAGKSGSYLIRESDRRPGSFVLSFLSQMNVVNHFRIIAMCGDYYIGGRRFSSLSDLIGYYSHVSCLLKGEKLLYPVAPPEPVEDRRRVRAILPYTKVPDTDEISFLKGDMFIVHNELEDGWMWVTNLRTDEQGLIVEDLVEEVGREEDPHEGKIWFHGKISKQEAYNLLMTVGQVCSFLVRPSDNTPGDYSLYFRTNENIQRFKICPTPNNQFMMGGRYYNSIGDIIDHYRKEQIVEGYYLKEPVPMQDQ
Sequence of LYN (Homo sapiens) (P07948 124-231): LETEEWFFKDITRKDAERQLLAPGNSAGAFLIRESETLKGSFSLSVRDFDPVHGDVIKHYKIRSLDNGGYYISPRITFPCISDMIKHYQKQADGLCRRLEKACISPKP
Sequence of SOCS5 (Homo sapiens) (O75159 376-481): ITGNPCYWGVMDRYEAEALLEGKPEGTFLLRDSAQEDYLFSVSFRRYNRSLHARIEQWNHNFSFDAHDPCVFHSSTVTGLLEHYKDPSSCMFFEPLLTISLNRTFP
Sequence of PLCG2-NC (Homo sapiens) (P16885 527-740): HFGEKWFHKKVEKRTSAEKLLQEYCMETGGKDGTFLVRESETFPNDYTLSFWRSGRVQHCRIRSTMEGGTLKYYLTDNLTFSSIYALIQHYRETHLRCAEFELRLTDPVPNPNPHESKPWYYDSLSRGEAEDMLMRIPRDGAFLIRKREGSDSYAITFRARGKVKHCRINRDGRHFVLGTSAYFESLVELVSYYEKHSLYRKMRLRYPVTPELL
Sequence of TNS4 (Homo sapiens) (Q8IZW8 444-561): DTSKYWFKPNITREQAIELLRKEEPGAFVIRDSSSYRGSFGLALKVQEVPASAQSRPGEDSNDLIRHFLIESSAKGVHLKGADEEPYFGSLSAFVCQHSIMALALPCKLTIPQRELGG
Sequence of BLK (Homo sapiens) (P51451 119-225): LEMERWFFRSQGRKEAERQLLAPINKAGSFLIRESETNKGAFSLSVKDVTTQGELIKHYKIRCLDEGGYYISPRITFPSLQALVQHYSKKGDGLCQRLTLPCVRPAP
Sequence of PLCG1-C (Homo sapiens) (P19174 545-761): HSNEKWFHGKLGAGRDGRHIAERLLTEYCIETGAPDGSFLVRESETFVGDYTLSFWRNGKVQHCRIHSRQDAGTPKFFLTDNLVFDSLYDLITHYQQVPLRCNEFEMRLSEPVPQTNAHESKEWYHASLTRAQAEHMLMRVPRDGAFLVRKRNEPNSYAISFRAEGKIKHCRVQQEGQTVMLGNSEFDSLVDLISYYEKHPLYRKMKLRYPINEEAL
Sequence of PLCG1-N (Homo sapiens) (P19174 545-761): as above
Sequence of VAV2 (Homo sapiens) (P52735 668-772): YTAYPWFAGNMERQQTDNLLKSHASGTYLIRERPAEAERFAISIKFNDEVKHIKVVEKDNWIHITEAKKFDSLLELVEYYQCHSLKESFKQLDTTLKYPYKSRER
Sequence of SHC3 (Homo sapiens) (Q92529 494-594): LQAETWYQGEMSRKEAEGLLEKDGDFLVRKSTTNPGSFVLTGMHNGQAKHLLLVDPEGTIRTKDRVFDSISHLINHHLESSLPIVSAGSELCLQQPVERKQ
Sequence of FER (Homo sapiens) (P16591 455-555): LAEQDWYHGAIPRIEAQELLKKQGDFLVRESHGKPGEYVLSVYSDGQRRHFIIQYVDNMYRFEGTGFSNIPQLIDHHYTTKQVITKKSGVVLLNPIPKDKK
Sequence of GRB7 (Homo sapiens) (Q14451 426-532): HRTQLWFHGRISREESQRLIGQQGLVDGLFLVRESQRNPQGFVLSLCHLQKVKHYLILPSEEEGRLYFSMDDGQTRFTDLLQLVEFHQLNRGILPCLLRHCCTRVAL
Sequence of PIK3R2-NC (Homo sapiens) (O00459 325-721): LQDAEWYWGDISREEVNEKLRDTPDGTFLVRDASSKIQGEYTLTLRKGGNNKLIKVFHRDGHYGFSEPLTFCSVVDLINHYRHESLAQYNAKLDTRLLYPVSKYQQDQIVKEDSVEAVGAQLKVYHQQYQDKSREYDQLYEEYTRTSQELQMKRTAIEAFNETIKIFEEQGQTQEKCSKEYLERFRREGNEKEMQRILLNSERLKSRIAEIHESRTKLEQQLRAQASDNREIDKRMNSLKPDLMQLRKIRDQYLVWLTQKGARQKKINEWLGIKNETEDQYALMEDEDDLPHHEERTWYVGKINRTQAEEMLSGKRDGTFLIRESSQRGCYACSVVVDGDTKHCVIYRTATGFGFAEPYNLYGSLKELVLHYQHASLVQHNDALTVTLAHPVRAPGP
Sequence of SH2D1A (Homo sapiens) (O60880 1-109): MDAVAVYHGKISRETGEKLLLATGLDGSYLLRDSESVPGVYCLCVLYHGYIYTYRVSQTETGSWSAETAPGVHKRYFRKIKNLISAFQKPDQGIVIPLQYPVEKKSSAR
Sequence of ITK (Homo sapiens) (Q08881 234-343): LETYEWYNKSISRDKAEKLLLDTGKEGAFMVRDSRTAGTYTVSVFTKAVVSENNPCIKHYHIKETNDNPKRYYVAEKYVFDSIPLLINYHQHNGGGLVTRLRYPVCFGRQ
Sequence of PTPN6-C (Homo sapiens) (P29350 1-218): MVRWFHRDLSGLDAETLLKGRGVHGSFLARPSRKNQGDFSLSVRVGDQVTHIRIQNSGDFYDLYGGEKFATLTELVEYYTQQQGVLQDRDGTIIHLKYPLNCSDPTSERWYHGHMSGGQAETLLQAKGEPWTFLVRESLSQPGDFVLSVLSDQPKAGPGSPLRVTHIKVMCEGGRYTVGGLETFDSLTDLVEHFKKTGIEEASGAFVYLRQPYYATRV
Sequence of NCK2 (Homo sapiens) (O43639 280-380): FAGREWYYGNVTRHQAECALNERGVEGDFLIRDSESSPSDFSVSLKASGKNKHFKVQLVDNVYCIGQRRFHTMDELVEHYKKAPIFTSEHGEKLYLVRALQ
Sequence of GRB10 (Homo sapiens) (Q13322 488-579): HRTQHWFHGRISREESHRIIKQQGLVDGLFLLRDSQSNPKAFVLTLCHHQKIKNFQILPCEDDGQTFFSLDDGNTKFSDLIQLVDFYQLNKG
Sequence of SHC1-PTB (Homo sapiens) (P29353 483-583): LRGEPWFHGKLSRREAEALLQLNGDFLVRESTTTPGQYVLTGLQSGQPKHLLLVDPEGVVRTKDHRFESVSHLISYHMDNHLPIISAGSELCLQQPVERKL
Sequence of RASA1-NC (Homo sapiens) (P20936 176-446): as the sequence (P20936 176-446) above

Regarding …pYEEMRAFQ, the apparent Kd (screen) in [1] was 0.499 µM; in [2] it was 1.95 µM; in [3], 1.35 µM; in data set [4], 0.058 µM; in data set [5] it was 0.086 µM; in data set [6] it was 0.012 µM.

Take …pYLIPQQGFd: the apparent Kd (screen) in [7] was 2 µM; in [8], 2 µM; in [9], 0.203 µM; in [10], 0.488 µM; in data set [11] it was 0.295 µM; in [12], 2 µM. Besides, the apparent Kd (screen) in [13] was 2 µM.

As to …pYLVPQQGF, the apparent Kd (screen) in data set [14] is 0.597 µM; in [15], 2 µM; in data set [16], 2 µM; in data set [17] it was 2 µM; in data set [18] it was 2 µM; in [19], 2 µM. For the same substance, the apparent Kd (screen) in data set [20] is 1.77 µM; in data set [21] it was 1.46 µM.

On to …pYWDQDPPE, for which the apparent Kd (screen) in data set [22] was 1.97 µM; in [23], 0.192 µM; in [24], 1.84 µM; in data set [25], 1.71 µM; in [26], 2 µM; in data set [27] it was 2 µM. The results for the apparent Kd (screen) in data set [28], in data set [29] and in data set [30] were 0.486 µM, 0.088 µM and 2 µM, respectively.
